According to patent US20230406935A1 (F STAR THERAPEUTICS, published 2023):

Legend:
[1] = target: T1, Monomeric His-tagged human PD-L1 (Acro biosystems PD1-H5229) (human, UniProt Q9NZQ7 19-238); experiment: off-rate on PD-L1, mock mAb^2; instrument not given
T1 construct: also called hPD-L1-his; PD-L1-his

[2] = target: Human PD-L1 expressed on cells (human, UniProt Q9NZQ7 19-290); experiment: cell-based or functional assay
Sequence of Human PD-L1 expressed on cells (Q9NZQ7 19-290 limits assumed): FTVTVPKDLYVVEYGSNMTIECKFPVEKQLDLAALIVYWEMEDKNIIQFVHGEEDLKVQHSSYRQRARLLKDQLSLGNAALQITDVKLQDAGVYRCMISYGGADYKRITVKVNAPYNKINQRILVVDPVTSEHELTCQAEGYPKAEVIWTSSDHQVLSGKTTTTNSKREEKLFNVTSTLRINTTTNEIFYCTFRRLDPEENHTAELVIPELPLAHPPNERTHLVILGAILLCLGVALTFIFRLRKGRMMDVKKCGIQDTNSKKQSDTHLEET

T1 sequence (Q9NZQ7 19-238 limits assumed): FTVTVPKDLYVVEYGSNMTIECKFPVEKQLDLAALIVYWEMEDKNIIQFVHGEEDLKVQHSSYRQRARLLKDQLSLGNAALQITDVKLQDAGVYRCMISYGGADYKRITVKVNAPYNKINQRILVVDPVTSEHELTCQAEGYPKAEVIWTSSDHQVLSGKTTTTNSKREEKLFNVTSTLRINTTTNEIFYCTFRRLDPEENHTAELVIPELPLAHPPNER

Row | koff [1] | DO11.10 EC50 [2] | Binder
1 | 0.000592 s⁻¹ | 0.304 nM | FS17-33-241AA/HELD1.3 (bispecific antibody) chain 1: QVQLQESGPGLVRPSQTLSLTCTVSGSTFSGYGVNWVRQPPGRGLEWIGMIWGDGNTDYNSALKSRVTMLVDTSKNQFSLRLSSVTAADTAVYYCARERDYRLDYWGQGSLVTVSSASTKGPSVFPLAPSSKSTSGGTAALGCLVKDYFPEPVTVSWNSGALTSGVHTFPAVLQSSGLYSLSSVVTVPSSSLGTQTYICNVNHKPSNTKVDKKVEPKSCDKTHTCPPCPAPEAAGGPSVFLFPPKPKDTLMISRTPEVTCVVVDVSHEDPEVKFNWYVDGVEVHNAKTKPREEQYNSTYRVVSVLTVLHQDWLNGKEYKCKVSNKALPAPIEKTISKAKGQPREPQVYTLPPSRDESGYWVSLTCLVKGFYPSDIAVEWESNGEPQYWAKTTPPVLDSDGSFFLYSKLTVSHWRWQLDDFSCSVMHEALHNHYTQKSLSLSPGK chain 2: DIQMTQSPASLSASVGETVTITCRASGNIHNYLAWYQQKQGKSPQLLVYNAKTLADGVPSRFSGSGSGTQYSLKINSLQPEDFGSYYCQHFWSTPRTFGGGTKLEIKRTVAAPSVFIFPPSDEQLKSGTASVVCLLNNFYPREAKVQWKVDNALQSGNSQESVTEQDSKDSTYSLSSTLTLSKADYEKHKVYACEVTHQGLSSPVTKSFNRGEC
2 | 0.000693 s⁻¹ | 0.588 nM | FS17-33-239AA/HELD1.3 (bispecific antibody) chain 1: QVQLQESGPGLVRPSQTLSLTCTVSGSTFSGYGVNWVRQPPGRGLEWIGMIWGDGNTDYNSALKSRVTMLVDTSKNQFSLRLSSVTAADTAVYYCARERDYRLDYWGQGSLVTVSSASTKGPSVFPLAPSSKSTSGGTAALGCLVKDYFPEPVTVSWNSGALTSGVHTFPAVLQSSGLYSLSSVVTVPSSSLGTQTYICNVNHKPSNTKVDKKVEPKSCDKTHTCPPCPAPEAAGGPSVFLFPPKPKDTLMISRTPEVTCVVVDVSHEDPEVKFNWYVDGVEVHNAKTKPREEQYNSTYRVVSVLTVLHQDWLNGKEYKCKVSNKALPAPIEKTISKAKGQPREPQVYTLPPSRDESGYWVSLTCLVKGFYPSDIAVEWESNGEPQYWAKTTPPVLDSDGSFFLYSKLTVSQWRWQLDDFSCSVMHEALHNHYTQKSLSLSPGK chain 2: DIQMTQSPASLSASVGETVTITCRASGNIHNYLAWYQQKQGKSPQLLVYNAKTLADGVPSRFSGSGSGTQYSLKINSLQPEDFGSYYCQHFWSTPRTFGGGTKLEIKRTVAAPSVFIFPPSDEQLKSGTASVVCLLNNFYPREAKVQWKVDNALQSGNSQESVTEQDSKDSTYSLSSTLTLSKADYEKHKVYACEVTHQGLSSPVTKSFNRGEC
3 | 0.000709 s⁻¹ | 0.561 nM | FS17-33-235AA/HELD1.3 (bispecific antibody) chain 1: QVQLQESGPGLVRPSQTLSLTCTVSGSTFSGYGVNWVRQPPGRGLEWIGMIWGDGNTDYNSALKSRVTMLVDTSKNQFSLRLSSVTAADTAVYYCARERDYRLDYWGQGSLVTVSSASTKGPSVFPLAPSSKSTSGGTAALGCLVKDYFPEPVTVSWNSGALTSGVHTFPAVLQSSGLYSLSSVVTVPSSSLGTQTYICNVNHKPSNTKVDKKVEPKSCDKTHTCPPCPAPEAAGGPSVFLFPPKPKDTLMISRTPEVTCVVVDVSHEDPEVKFNWYVDGVEVHNAKTKPREEQYNSTYRVVSVLTVLHQDWLNGKEYKCKVSNKALPAPIEKTISKAKGQPREPQVYTLPPSRDESGYWVSLTCLVKGFYPSDIAVEWESNGEPQYWAKTTPPVLDSDGSFFLYSKLTVSAWRWQLDDFSCSVMHEALHNHYTQKSLSLSPGK chain 2: DIQMTQSPASLSASVGETVTITCRASGNIHNYLAWYQQKQGKSPQLLVYNAKTLADGVPSRFSGSGSGTQYSLKINSLQPEDFGSYYCQHFWSTPRTFGGGTKLEIKRTVAAPSVFIFPPSDEQLKSGTASVVCLLNNFYPREAKVQWKVDNALQSGNSQESVTEQDSKDSTYSLSSTLTLSKADYEKHKVYACEVTHQGLSSPVTKSFNRGEC

Further lines, the binder ahead of its results:

Row | Binder | koff [1] | DO11.10 EC50 [2]
4 | FS17-33-157AA/HELD1.3 (bispecific antibody) chain 1: QVQLQESGPGLVRPSQTLSLTCTVSGSTFSGYGVNWVRQPPGRGLEWIGMIWGDGNTDYNSALKSRVTMLVDTSKNQFSLRLSSVTAADTAVYYCARERDYRLDYWGQGSLVTVSSASTKGPSVFPLAPSSKSTSGGTAALGCLVKDYFPEPVTVSWNSGALTSGVHTFPAVLQSSGLYSLSSVVTVPSSSLGTQTYICNVNHKPSNTKVDKKVEPKSCDKTHTCPPCPAPEAAGGPSVFLFPPKPKDTLMISRTPEVTCVVVDVSHEDPEVKFNWYVDGVEVHNAKTKPREEQYNSTYRVVSVLTVLHQDWLNGKEYKCKVSNKALPAPIEKTISKAKGQPREPQVYTLPPSRDEEGYWVSLTCLVKGFYPSDIAVEWESNGEPQYWAKTTPPVLDSDGSFFLYSKLTVSNWRWQLDDFSCSVMHEALHNHYTQKSLSLSPGK chain 2: DIQMTQSPASLSASVGETVTITCRASGNIHNYLAWYQQKQGKSPQLLVYNAKTLADGVPSRFSGSGSGTQYSLKINSLQPEDFGSYYCQHFWSTPRTFGGGTKLEIKRTVAAPSVFIFPPSDEQLKSGTASVVCLLNNFYPREAKVQWKVDNALQSGNSQESVTEQDSKDSTYSLSSTLTLSKADYEKHKVYACEVTHQGLSSPVTKSFNRGEC | 0.000559 s⁻¹ | 0.481 nM
5 | FS17-33-161AA/HELD1.3 (bispecific antibody) chain 1: QVQLQESGPGLVRPSQTLSLTCTVSGSTFSGYGVNWVRQPPGRGLEWIGMIWGDGNTDYNSALKSRVTMLVDTSKNQFSLRLSSVTAADTAVYYCARERDYRLDYWGQGSLVTVSSASTKGPSVFPLAPSSKSTSGGTAALGCLVKDYFPEPVTVSWNSGALTSGVHTFPAVLQSSGLYSLSSVVTVPSSSLGTQTYICNVNHKPSNTKVDKKVEPKSCDKTHTCPPCPAPEAAGGPSVFLFPPKPKDTLMISRTPEVTCVVVDVSHEDPEVKFNWYVDGVEVHNAKTKPREEQYNSTYRVVSVLTVLHQDWLNGKEYKCKVSNKALPAPIEKTISKAKGQPREPQVYTLPPSRDELGYWVSLTCLVKGFYPSDIAVEWESNGEPQYWAKTTPPVLDSDGSFFLYSKLTVSNWRWQLDDFSCSVMHEALHNHYTQKSLSLSPGK chain 2: DIQMTQSPASLSASVGETVTITCRASGNIHNYLAWYQQKQGKSPQLLVYNAKTLADGVPSRFSGSGSGTQYSLKINSLQPEDFGSYYCQHFWSTPRTFGGGTKLEIKRTVAAPSVFIFPPSDEQLKSGTASVVCLLNNFYPREAKVQWKVDNALQSGNSQESVTEQDSKDSTYSLSSTLTLSKADYEKHKVYACEVTHQGLSSPVTKSFNRGEC | 0.000578 s⁻¹ | 0.453 nM
6 | FS17-33-159AA/HELD1.3 (bispecific antibody) chain 1: QVQLQESGPGLVRPSQTLSLTCTVSGSTFSGYGVNWVRQPPGRGLEWIGMIWGDGNTDYNSALKSRVTMLVDTSKNQFSLRLSSVTAADTAVYYCARERDYRLDYWGQGSLVTVSSASTKGPSVFPLAPSSKSTSGGTAALGCLVKDYFPEPVTVSWNSGALTSGVHTFPAVLQSSGLYSLSSVVTVPSSSLGTQTYICNVNHKPSNTKVDKKVEPKSCDKTHTCPPCPAPEAAGGPSVFLFPPKPKDTLMISRTPEVTCVVVDVSHEDPEVKFNWYVDGVEVHNAKTKPREEQYNSTYRVVSVLTVLHQDWLNGKEYKCKVSNKALPAPIEKTISKAKGQPREPQVYTLPPSRDEHGYWVSLTCLVKGFYPSDIAVEWESNGEPQYWAKTTPPVLDSDGSFFLYSKLTVSNWRWQLDDFSCSVMHEALHNHYTQKSLSLSPGK chain 2: DIQMTQSPASLSASVGETVTITCRASGNIHNYLAWYQQKQGKSPQLLVYNAKTLADGVPSRFSGSGSGTQYSLKINSLQPEDFGSYYCQHFWSTPRTFGGGTKLEIKRTVAAPSVFIFPPSDEQLKSGTASVVCLLNNFYPREAKVQWKVDNALQSGNSQESVTEQDSKDSTYSLSSTLTLSKADYEKHKVYACEVTHQGLSSPVTKSFNRGEC | 0.000427 s⁻¹ | 0.263 nM
7 | FS17-33-166AA/HELD1.3 (bispecific antibody) chain 1: QVQLQESGPGLVRPSQTLSLTCTVSGSTFSGYGVNWVRQPPGRGLEWIGMIWGDGNTDYNSALKSRVTMLVDTSKNQFSLRLSSVTAADTAVYYCARERDYRLDYWGQGSLVTVSSASTKGPSVFPLAPSSKSTSGGTAALGCLVKDYFPEPVTVSWNSGALTSGVHTFPAVLQSSGLYSLSSVVTVPSSSLGTQTYICNVNHKPSNTKVDKKVEPKSCDKTHTCPPCPAPEAAGGPSVFLFPPKPKDTLMISRTPEVTCVVVDVSHEDPEVKFNWYVDGVEVHNAKTKPREEQYNSTYRVVSVLTVLHQDWLNGKEYKCKVSNKALPAPIEKTISKAKGQPREPQVYTLPPSRDEYGYWVSLTCLVKGFYPSDIAVEWESNGEPQYWAKTTPPVLDSDGSFFLYSKLTVSNWRWQLDDFSCSVMHEALHNHYTQKSLSLSPGK chain 2: DIQMTQSPASLSASVGETVTITCRASGNIHNYLAWYQQKQGKSPQLLVYNAKTLADGVPSRFSGSGSGTQYSLKINSLQPEDFGSYYCQHFWSTPRTFGGGTKLEIKRTVAAPSVFIFPPSDEQLKSGTASVVCLLNNFYPREAKVQWKVDNALQSGNSQESVTEQDSKDSTYSLSSTLTLSKADYEKHKVYACEVTHQGLSSPVTKSFNRGEC | 0.000523 s⁻¹ | 0.238 nM
8 | FS17-33-163AA/HELD1.3 (bispecific antibody) chain 1: QVQLQESGPGLVRPSQTLSLTCTVSGSTFSGYGVNWVRQPPGRGLEWIGMIWGDGNTDYNSALKSRVTMLVDTSKNQFSLRLSSVTAADTAVYYCARERDYRLDYWGQGSLVTVSSASTKGPSVFPLAPSSKSTSGGTAALGCLVKDYFPEPVTVSWNSGALTSGVHTFPAVLQSSGLYSLSSVVTVPSSSLGTQTYICNVNHKPSNTKVDKKVEPKSCDKTHTCPPCPAPEAAGGPSVFLFPPKPKDTLMISRTPEVTCVVVDVSHEDPEVKFNWYVDGVEVHNAKTKPREEQYNSTYRVVSVLTVLHQDWLNGKEYKCKVSNKALPAPIEKTISKAKGQPREPQVYTLPPSRDEFGYWVSLTCLVKGFYPSDIAVEWESNGEPQYWAKTTPPVLDSDGSFFLYSKLTVSNWRWQLDDFSCSVMHEALHNHYTQKSLSLSPGK chain 2: DIQMTQSPASLSASVGETVTITCRASGNIHNYLAWYQQKQGKSPQLLVYNAKTLADGVPSRFSGSGSGTQYSLKINSLQPEDFGSYYCQHFWSTPRTFGGGTKLEIKRTVAAPSVFIFPPSDEQLKSGTASVVCLLNNFYPREAKVQWKVDNALQSGNSQESVTEQDSKDSTYSLSSTLTLSKADYEKHKVYACEVTHQGLSSPVTKSFNRGEC | 0.000372 s⁻¹ | 0.37 nM
